Experimental data reported in patent US20250026849A1 (ARCELLX, published 2025).
Residue numbers refer to the chain shown, from its start.

T1: BCMA (Homo sapiens (Human), UniProt Q02223 1-54, limits assumed)
T1 sequence: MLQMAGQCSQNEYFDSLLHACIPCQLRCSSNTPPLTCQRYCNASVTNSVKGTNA

B1: D-domain SEQ ID NO: 125 (designed binder)
chain: MGSWYEFHYRLKAINDRLYALGGSEAELAAFEKEIAAFESELQAYKGKGNPEVEYLRYSAAMIRHKLQAYRHN
B2: D-domain SEQ ID NO: 126 (designed binder)
chain: B1 chain with Y5T, Y9Q, K12G, N15H, D16A, Y19G, Y58F, M62F, H65L
B3: D-domain SEQ ID NO: 119 (designed binder)
chain: MGSWYEFGDRLSAIWERLAALGGSEAELAAFEKEIAAFESELQAYKGKGNPEVEYLRTHAAEIRTILQAYRHN
B4: D-domain SEQ ID NO: 146 (designed binder)
chain: MGSWGEFNLRLVAIHVRLWALGGSEAELAAFEKEIAAFESELQAYKGKGNPEVEFLRSQAANIRAQLQAYRHN
B5: D-domain SEQ ID NO: 147 (designed binder)
chain: B4 chain with N8S, L9D, V12E, H15N, V16E, F55E, S58W, N62F, Q66N
B6: D-domain SEQ ID NO: 124 (designed binder)
chain: MGSWNEFHHRLWAIFDRLGALGGSEAELAAFEKEIAAFESELQAYKGKGNPEVEVLRKMAAGIRGGLQAYRHN
B7: D-domain SEQ ID NO: 122 (designed binder)
chain: MGSWLEFHYRLHAIQFRLYALGGSEAELAAFEKEIAAFESELQAYKGKGNPEVETLRHIAALIRNQLQAYRHN
B8: D-domain SEQ ID NO: 129 (designed binder)
chain: MGSWVEFGTRLSAIYNRLWALGGSEAELAAFEKEIAAFESELQAYKGKGNPEVEDLRFEAAIIRIMLQAYRHN
B9: D-domain SEQ ID NO: 130 (designed binder)
chain: B8 chain with G8T, T9H, S12D, N16I, D55E, F58H, I62V, I65E, M66E
B10: D-domain SEQ ID NO: 139 (designed binder)
chain: B8 chain with V5S, G8S, N16V, D55Y, F58N, E59K, I62S, I65K, M66T
B11: D-domain SEQ ID NO: 127 (designed binder)
chain: MGSWFEFQYRLEAIFYRLLALGGSEAELAAFEKEIAAFESELQAYKGKGKPEVEELRVRAALIRHLLQAYRHN
B12: D-domain SEQ ID NO: 145 (designed binder)
chain: MGSWEEFYGRLSAIQDRLWALGGSEAELAAFEKEIAAFESELQAYKGKGNPEVEWLRMHAAVIRRALQAYRHN
B13: D-domain SEQ ID NO: 123 (designed binder)
chain: MGSWQEFYNRLEAIHMRLFALGGSEAELAAFEKEIAAFESELQAYKGKGNPEVEGLRSDAAPIRDVLQAYRHN
B14: D-domain SEQ ID NO: 131 (designed binder)
chain: MGSWVEFHGRLAAIYVRLFALGGSEAELAAFEKEIAAFESELQAYKGKGNPEVESLRYHAAMIRRNLQAYRHN
B15: D-domain SEQ ID NO: 140 (designed binder)
chain: MGSWVEFRYRLGAIYHRLWALGGSEAELAAFEKEIAAFESELQAYKGKGNPEVEVLRDRAATIRRLLQAYRHN
B16: D-domain SEQ ID NO: 128 (designed binder)
chain: MGSWVEFHARLDAIYTRLGALGGSEAELAAFEKEIAAFESELQAYKGKGNPEVEYLRVLAAHIRISLQAYRHN
B17: D-domain SEQ ID NO: 116 (designed binder)
chain: MGSWVEFDERLVAIWFRLHALGGSEAELAAFEKEIAAFESELQAYKGKGNPEVEALRARAAYIRIWLQAYRHN
B18: D-domain SEQ ID NO: 132 (designed binder)
chain: B15 chain with R8D, Y9R, G12V, H16I, V55A, R59D, T62L, R65L
B19: D-domain SEQ ID NO: 117 (designed binder)
chain: B17 chain with V5S, D8G, E9Q, V12S, F16E, H19L, R59D, Y62F
B20: D-domain SEQ ID NO: 133 (designed binder)
chain: B15 chain with R8D, Y9R, G12V, H16I, V55K, D58Y, R59D, R65E, L66T
B21: D-domain SEQ ID NO: 134 (designed binder)
chain: MGSWLEFDRRLTAIYLRLWALGGSEAELAAFEKEIAAFESELQAYKGKGNPEVEALREDAAMIRDMLQAYRHN
B22: D-domain SEQ ID NO: 137 (designed binder)
chain: B21 chain with L5V, T12I, Y15W, L16V, A55F, E58S, D65E, M66H
B23: D-domain SEQ ID NO: 136 (designed binder)
chain: B21 chain with L5I, T12I, Y15W, L16I, A55S, E58S, M62D, D65Q, M66K
B24: D-domain SEQ ID NO: 115 (designed binder)
chain: MGSWNEFSGRLTAIKDRLAALGGSEAELAAFEKEIAAFESELQAYKGKGNPEVEELRFRAAVIRLWLQAYRHN
B25: D-domain SEQ ID NO: 143 (designed binder)
chain: MGSWTEFYQRLEAINFRLWALGGSEAELAAFEKEIAAFESELQAYKGKGNPEVEVLRDKAALIRLMLQAYRHN
B26: D-domain SEQ ID NO: 197 (designed binder)
chain: MGSWSEFWVRLGAIRERLDALGGSEAELAAFEKEIAAFESELQAYKGKGNPEVEKLRYTAATIRRFLQAYRHN
notes: also called bc40
B27: D-domain SEQ ID NO: 207 (designed binder)
chain: B26 chain with S5V, V9N, R15Y, E16D, D19E, Y58H, T62V, R65L, F66Y
B28: D-domain SEQ ID NO: 204 (designed binder)
chain: MGSWFEFWDRLAAIRDRLEALGGSEAELAAFEKEIAAFESELQAYKGKGNPEVEDLRYVAAKIRVRLQAYRHN
B29: D-domain SEQ ID NO: 205 (designed binder)
chain: B28 chain with F5T, D9V, A12N, Y58H, V59T, K62I, V65N, R66Y
B30: D-domain SEQ ID NO: 208 (designed binder)
chain: B26 chain with V9E, G12E, R15Y, E16D, D19Y, K55E, Y58R, R65S
B31: D-domain SEQ ID NO: 202 (designed binder)
chain: B26 chain with V9D, G12T, E16V, T62H, R65K
B32: D-domain SEQ ID NO: 209 (designed binder)
chain: MGSWEEFDNRLEAIFDRLEALGGSEAELAAFEKEIAAFESELQAYKGKGNPEVEELREFAATIRITLQAYRHN
B33: D-domain SEQ ID NO: 214 (designed binder)
chain: MGSWTEFWARLYAIEMRLFALGGSEAELAAFEKEIAAFESELQAYKGKGNPEVEHLRRVAALIREQLQAYRHN
B34: D-domain SEQ ID NO: 206 (designed binder)
chain: B32 chain with E5V, D8W, N9H, E12G, F15Y, E58R, F59T, T62L, I65Q
B35: D-domain SEQ ID NO: 135 (designed binder)
chain: B21 chain with L5I, T12L, Y15H, L16V, A55V, E58A, M62K, D65M, M66E
B36: D-domain SEQ ID NO: 138 (designed binder)
chain: MGSWYEFHTRLIAIYVRLWALGGSEAELAAFEKEIAAFESELQAYKGKGNPEVEWLRGDAAKIRGYLQAYRHN
B37: D-domain SEQ ID NO: 141 (designed binder)
chain: MGSWNEFRNRLGAIDSRLWALGGSEAELAAFEKEIAAFESELQAYKGKGNPEVETLRAHAAIIRSVLQAYRHN
B38: D-domain SEQ ID NO: 144 (designed binder)
chain: B37 chain with R8Y, G12H, D15N, S16L, T55V, A58E, S65Q, V66A
B39: D-domain SEQ ID NO: 142 (designed binder)
chain: B37 chain with N5H, H59R, I62M
B40: D-domain SEQ ID NO: 118 (designed binder)
chain: MGSWYEFEDRLVAIWIRLDALGGSEAELAAFEKEIAAFESELQAYKGKGNPEVEELRYNAAFIRGALQAYRHN
B41: D-domain SEQ ID NO: 149 (designed binder)
chain: MGSWMEFEGRLPAILARLRALGGSEAELAAFEKEIAAFESELQAYKGKGNPEVEHLRDKAAYIRWMLQAYRHN
B42: D-domain SEQ ID NO: 158 (designed binder)
chain: B41 chain with M5E, E8D, G9D, P12N, L15V, A16Y, H55M, K59Q, W65L
B43: D-domain SEQ ID NO: 154 (designed binder)
chain: B41 chain with M5I, E8D, G9T, P12A, L15V, A16H, H55L, W65Y
B44: D-domain SEQ ID NO: 157 (designed binder)
chain: B41 chain with M5Y, E8Q, G9D, P12S, L15T, A16T, H55L, W65F
B45: D-domain SEQ ID NO: 156 (designed binder)
chain: B41 chain with M5Y, G9D, P12L, L15K, A16V, H55Y, K59Q, W65F
B46: D-domain SEQ ID NO: 148 (designed binder)
chain: B41 chain with E8Q
B47: D-domain SEQ ID NO: 160 (designed binder)
chain: B41 chain with M5V, G9W, P12E, L15V, A16V, W65Y
B48: D-domain SEQ ID NO: 159 (designed binder)
chain: B41 chain with M5V, G9Q, P12H, L15V, A16V, K48G, H55N, K59Q, W65F
B49: D-domain SEQ ID NO: 152 (designed binder)
chain: B41 chain with M5V, E8N, G9A, P12D, A16F, K59Q, W65L
B50: D-domain SEQ ID NO: 161 (designed binder)
chain: B41 chain with M5Y, G9H, P12K, L15V, A16S, R19G, W65Y
B51: D-domain SEQ ID NO: 151 (designed binder)
chain: B41 chain with M5V, E8D, G9M, P12Q, A16E, K59S, W65L
B52: D-domain SEQ ID NO: 155 (designed binder)
chain: B41 chain with M5I, E8D, G9Y, P12K, A16H, H55G, W65F, M66L
B53: D-domain SEQ ID NO: 153 (designed binder)
chain: B41 chain with E8N, G9V, P12R, A16D, R19H, H55L, W65F
B54: D-domain SEQ ID NO: 162 (designed binder)
chain: B41 chain with E8K, G9H, P12A, L15T, A16F, H55L, W65L, M66L
B55: D-domain SEQ ID NO: 150 (designed binder)
chain: B41 chain with M5F, E8Q, G9N, P12Q, A16F, H55N, W65L

target: T1, BCMA; experiment: ELISA, format not described; set-up: unit not given here

Binder | ELISA_avg
B1 | 6.04
B2 | 8.87
B3 | 8.89
B4 | 12.8
B5 | 4.26
B6 | 3.88
B7 | 12.7
B8 | 15.4
B9 | 13.9
B10 | 5.35
B11 | 17.3
B12 | 3.28
B13 | 6.47
B14 | 4
B15 | 10.8
B16 | 3.8
B17 | 8.96
B18 | 8.93
B19 | 14
B20 | 8
B21 | 9.82
B22 | 5.77
B23 | 9.45
B24 | 3.39
B25 | 6.96
B26 | 7.56
B27 | 14.6
B28 | 12.8

Binder | ELISA_avg
B29 | 12.5
B30 | 18.8
B31 | 16.1
B32 | 3.93
B33 | 12.5
B34 | 19.9
B35 | 13.7
B36 | 4.06
B37 | 4.7
B38 | 3
B39 | 3.49
B40 | 4.93
B41 | 3.93
B42 | 18.6
B43 | 13.9
B44 | 10.1
B45 | 17.6
B46 | 8.32
B47 | 14.9
B48 | 17.7
B49 | 13.5
B50 | 4.55
B51 | 23.5
B52 | 11.9
B53 | 15.6
B54 | 6.06
B55 | 5.39
